Patent KR20180006452A (dated 2018)

T1: 가용형 인간 FcγRIIb (human, UniProt P31994 43-217, limits assumed)
T1 construct: also called hFcγRIIb; hFcγRII2b; not shown: His tag
T1 sequence (looked up): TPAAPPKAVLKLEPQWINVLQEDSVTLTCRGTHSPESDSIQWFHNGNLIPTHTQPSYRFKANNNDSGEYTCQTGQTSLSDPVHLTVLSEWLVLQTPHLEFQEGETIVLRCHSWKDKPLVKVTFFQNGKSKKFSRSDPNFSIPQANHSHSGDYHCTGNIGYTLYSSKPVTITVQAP


Tests used:
가용형 인간 FcγRIIb = molecular target: T1, 가용형 인간 FcγRIIb; experiment: SPR (BIACORE T200), hFcγRIIb captured by anti-His antibody, IgE-antibody complex as analyte, pH 7.4, 25C
가용형 필리핀 원숭이 FcγRIIIa = molecular target: T2, 가용형 필리핀 원숭이 FcγRIIIa (필리핀 원숭이 (cynomolgus monkey), UniProt Q8SPW2 17-208, limits assumed); experiment: SPR (BIACORE T200), antibody captured on rProtein L, soluble FcγR as analyte, 20C
T2 construct: also called cynoFcγRIIIa; not shown: His tag

가용형 인간 FcγRIa = molecular target: T3, 가용형 인간 FcγRIa (human, UniProt P12314 16-292, limits assumed); experiment: as above
T3 construct: also called hFcγRIa; not shown: His tag

가용형 인간 FcγRIIIa = molecular target: T4, 가용형 인간 FcγRIIIa (human, UniProt P08637 17-208, limits assumed); experiment: as above
T4 construct: also called hFcγRIIIa; not shown: His tag
T4 sequence (P08637 17-208 limits assumed): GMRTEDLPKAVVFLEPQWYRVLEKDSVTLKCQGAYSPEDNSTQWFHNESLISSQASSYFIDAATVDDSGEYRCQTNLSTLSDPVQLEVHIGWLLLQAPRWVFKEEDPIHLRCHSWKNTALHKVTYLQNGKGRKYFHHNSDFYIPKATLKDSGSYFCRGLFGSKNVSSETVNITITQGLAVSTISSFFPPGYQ

T2 sequence (Q8SPW2 17-208 limits assumed): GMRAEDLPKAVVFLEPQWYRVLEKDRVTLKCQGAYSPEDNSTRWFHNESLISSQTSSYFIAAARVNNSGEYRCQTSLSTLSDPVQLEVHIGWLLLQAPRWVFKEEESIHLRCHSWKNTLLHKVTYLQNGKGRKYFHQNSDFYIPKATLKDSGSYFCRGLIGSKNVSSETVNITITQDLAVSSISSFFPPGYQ
T3 sequence (P12314 16-292 limits assumed): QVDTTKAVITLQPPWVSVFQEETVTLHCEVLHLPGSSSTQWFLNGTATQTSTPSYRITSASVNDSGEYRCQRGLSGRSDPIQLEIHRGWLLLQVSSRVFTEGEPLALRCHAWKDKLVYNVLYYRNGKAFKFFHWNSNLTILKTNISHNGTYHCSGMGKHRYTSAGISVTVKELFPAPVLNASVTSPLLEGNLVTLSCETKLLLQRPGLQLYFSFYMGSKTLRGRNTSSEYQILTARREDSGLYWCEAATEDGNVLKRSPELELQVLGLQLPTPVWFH

| binding result (가용형 인간 FcγRIIb) | binding result (가용형 필리핀 원숭이 FcγRIIIa) | binding result (가용형 인간 FcγRIa) | binding result (가용형 인간 FcγRIIIa) | Binder |
| --- | --- | --- | --- | --- |
| binds |  |  |  | Ab1H-P1394m/Ab1L (antibody, human IgG1, kappa, Ab1H with Q311K (EU numbering)) heavy: not shown light: DIQMTQSPSSVSASVGDRVTITCQASESIYSGLAWYQQKPGQPPKLLIYDHSTLASGVPSRFSGSGSGTEYALTISSLQPEDFATYYCQHADYAHHSDNVFGGGTKVEIKRTVAAPSVFIFPPSDEQLKSGTASVVCLLNNFYPREAKVQWKVDNALQSGNSQESVTEQDSKDSTYSLSSTLTLSKADYEKHKVYACEVTHQGLSSPVTKSFNRGEC |
|  | no binding | no binding | no binding | H1009/L395-F1886s (antibody, also called H1009-F1886s/L395-k0MT) heavy: QVQLVESGGGLVQPGGSLRLSCAASGFTFSDYYLSWVRQAPGKGLEWVGLIRNKDNYHTPEYSASVKGRFTISRDDSKNSLYLTMSDLKTEDTAVYYCARENHRYDVELAYWGQGTLVTVSSASTKGPSVFPLAPSSKSTSGGTAALGCLVKDYFPEPVTVSWNSGALTSGVHTFPAVLQSSGLYSLSSVVTVPSSSLGTQTYICNVNHKPSNTKVDKKVEPKSCDKTHTCPPCPAPELRRGPKVFLFPPKPKDTLMISRTPEVTCVVVDVSHEDPEVKFNWYVDGVEVHNAKTKPREEQYNSTYRVVSVLTVLHQDWLNGKEYKCKVSNKALPAPIEKTISKAKGQPREPQVYTLPPSREEMTKNQVSLTCLVKGFYPSDIAVEWESNGQPENNYKTTPPVLDSDGSFFLYSKLTVDKSRWQQGNVFSCSVLHEALHAHTTRKELSLSP light: DIQMTQSPSSLSASVGDRVTITCRASEIIYSYLAWYQQKPGKAPKLLIYKAKTHADGVPSRFSGSGSGTDFTFTISSLQPEDIATYYCKHHFGFPRTFGQGTKVEIKRTVAAPSVFIFPPSDEQLKSGTASVVCLLNNFYPREAKVQWKVDNALQSGNSQESVTEQDSKDSTYSLSSTLTLSKADYEKHKVYACEVTHQGLSSPVTKSFNRGEC |
|  | no binding | no binding | no binding | H1009/L395-F1974m (antibody, also called H1009-F1974m/L395-k0MT) heavy: QVQLVESGGGLVQPGGSLRLSCAASGFTFSDYYLSWVRQAPGKGLEWVGLIRNKDNYHTPEYSASVKGRFTISRDDSKNSLYLTMSDLKTEDTAVYYCARENHRYDVELAYWGQGTLVTVSSASTKGPSVFPLAPSSKSTSGGTAALGCLVKDYFPEPVTVSWNSGALTSGVHTFPAVLQSSGLYSLSSVVTVPSSSLGTQTYICNVNHKPSNTKVDKKVEPKSCDKTHTCPPCPAPELRRGPSVFLFPPKPKDTLMISRTPEVTCVVVDVSHEDPEVKFNWYVDGVEVHNAKTKPREEQYNSTYRVVSVLTVLHQDWLNGKEYKCKVSNKGLPSSIEKTISKAKGQPREPQVYTLPPSREEMTKNQVSLTCLVKGFYPSDIAVEWESNGQPENNYKTTPPVLDSDGSFFLYSKLTVDKSRWQQGNVFSCSVLHEALHAHTTRKELSLSP light: DIQMTQSPSSLSASVGDRVTITCRASEIIYSYLAWYQQKPGKAPKLLIYKAKTHADGVPSRFSGSGSGTDFTFTISSLQPEDIATYYCKHHFGFPRTFGQGTKVEIKRTVAAPSVFIFPPSDEQLKSGTASVVCLLNNFYPREAKVQWKVDNALQSGNSQESVTEQDSKDSTYSLSSTLTLSKADYEKHKVYACEVTHQGLSSPVTKSFNRGEC |
